Columns and labels:
[1] = tested on: Fr-MLV LTR enhancer acting on GFP gene in HeLa cells; experiment: First generation two-reporter (DsRed/GFP) enhancer-blocking assay, transient transfection, FACS; type: cell-based, human; conditions: element interposed between enhancer and GFP gene
Excerpt: The strategy elaborated by Applicants to address the potential enhancer-blocking activity of genetic elements consists in setting up a two-reporter genes-assay whereby the potency of suspected insulators can be quantified. A series of plasmids were thus designed, containing a combination of two reporter genes: a DsRed gene, used as the assay system internal control, under the control of a Fr-MLV LTR enhancer/promoter, and a GFP gene under the control of a minimal CMV promoter, but also subjected to the influence of the LTR enhancer. […] By analyzing the expression of both reporter genes by flow cytometry, this system provides a standardized quantitative procedure to assess potential insulator elements. […]
The constructs described in FIG. 14 were used to transfect transiently HeLa cells. The expression of both DsRed and GFP was analyzed by FACS. […]
HeLa cells were transfected with pAG1-3-HS4 (left panel) or pAG1-3-2HS4 (right panel) constructs (respectively constructs #4 and #5 on FIG. 30), and 100′000 cells were analyzed 48 hours later. […]
HeLa cell populations transiently transfected with constructs containing either no cHS4 (noins) or a copy at the GFP extremity (HS4) or two copies flanking the GFP gene (2HS4) were analyzed by FACS. Percentages of GFP-expressing cells (left panel) and GFP mean fluorescence in RLU (right panel) are plotted for each case.

HeLa cells = experiment: Neomycin (G418) resistant colony insulator assay in HeLa cells; type: cell-based, human; conditions: element between enhancer and minimal promoter/neo, 2 weeks G418
Method: For experimental convenience, Applicants wanted to validate the cHS4 enhancer-blocking activity in HeLa cells (top bars). Using the same approach, the pJC5-4 deriving constructs were stably transfected in HeLa cells. The cHS4 was able to insulate the reporter gene from the LCR activation of nearly 15-fold.
The capacity of the cHS4 to block the Fr-MLV LTR strong enhancer was assessed using the same system in HeLa cells. Additional plasmids were constructed, replacing the β-globin LCR element by the Fr-MLV LTR in both orientations.
FIG. 20. Assessment of the insulator activity of multimerized CTF binding sites using the commonly-used neomycin-resistance insulator assay. The number of neomycin resistant colonies were determined as in FIGS. 15 and 16 after 2 weeks of G418 selection of HeLa cells transfected using the indicated reporter constructs. […]
(A) Schematic representation of the vectors used for the insulator assay based on the quantitation of neomycin-resistant colonies. […] The level of expression of that reporter gene is assessed by the number of neomycin-resistant colonies obtained after stable transfections. […]
(C) Percentage of neomycin-resistant colonies counted 2 to 3 weeks after transfection and G418 selection of HeLa (dashed bars) and K562 (black bars) cells. […]

B1: Ins2: 7 direct repeats of the CTF/NF1 binding site from adenovirus type II origin of replication, 5 bp spacing (nucleic acid)
DNA: ATCGATAAGCTTGCATTGGCAACGTGCCATAAGCATTGGCAACGTGCCATAAGCATTGGCAACGTGCCATAAGCATTGGCAACGTGCCATAAGCATTGGCAACGTGCCATAAGCATTGGCAACGTGCCATAAGCATTGGCAACGTGCCATAAGCGGGGGGATCC
modifications: 7xCTF/NF1 from adenovirus type II
[1]
  decrease of mean fluorescence of GFP-positive cells: approximately three-fold
HeLa cells
  occurrence of colonies of neomycin-resistant cells: significantly reduced the occurrence of colonies of neomycin-resistant cells
